Results reported in patent publication US20100022459A1 (TEL AVIV UNIVERSITY FUTURE TECHNOLOGY DEVELOPMENT L P, published 2010).
Ends that are not written are not given here. cellulose membrane = cellulose membrane support bound via the C-terminal amino acid

B1: hIAPP10-19 (peptide)
peptide: Ac-QRLANFLVHS
modifications: also: C-terminal residue bound to cellulose membrane
notes: 61-88; also called decamer of the hIAPP peptide array
B2: hIAPP22-31 (peptide)
peptide: Ac-NFGAILSSTN-{cellulose membrane}
notes: as for B1
B3: hIAPP28-37 (peptide)
peptide: Ac-SSTNVGSNTY-{cellulose membrane}
notes: as for B1
B4: hIAPP15-24 (peptide)
peptide: Ac-FLVHSSNNFG-{cellulose membrane}
notes: as for B1
B5: hIAPP27-36 (peptide)
peptide: Ac-LSSTNVGSNT-{cellulose membrane}
notes: as for B1
B6: hIAPP5-14 (peptide)
peptide: Ac-ATCATQRLAN-{cellulose membrane}
notes: as for B1
B7: hIAPP1-10 (peptide)
peptide: Ac-KCNTATCATQ
modifications: cysteine pairing not given here; also: C-terminal residue bound to cellulose membrane
notes: 61-88 (hIAPP1-10 ... hIAPP28-37); also called decamer of the hIAPP peptide array
B8: hIAPP6-15 (peptide)
peptide: Ac-TCATQRLANF-{cellulose membrane}
notes: as for B1
B9: hIAPP19-28 (peptide)
peptide: Ac-SSNNFGAILS
modifications: also: C-terminal residue bound to cellulose membrane
notes: as for B1
B10: hIAPP18-27 (peptide)
peptide: Ac-HSSNNFGAIL-{cellulose membrane}
notes: as for B1
B11: hIAPP17-26 (peptide)
peptide: Ac-VHSSNNFGAI-{cellulose membrane}
notes: as for B1
B12: hIAPP14-23 (peptide)
peptide: Ac-NFLVHSSNNF-{cellulose membrane}
notes: as for B1
B13: hIAPP25-34 (peptide)
peptide: Ac-AILSSTNVGS-{cellulose membrane}
notes: as for B1
B14: hIAPP11-20 (peptide)
peptide: Ac-RLANFLVHSS
modifications: also: C-terminal residue bound to cellulose membrane
notes: as for B1
B15: hIAPP16-25 (peptide)
peptide: Ac-LVHSSNNFGA-{cellulose membrane}
notes: as for B1
B16: hIAPP3-12 (peptide)
peptide: Ac-NTATCATQRL
modifications: also: C-terminal residue bound to cellulose membrane
notes: as for B1
B17: hIAPP13-22 (peptide)
peptide: Ac-ANFLVHSSNN-{cellulose membrane}
notes: as for B1
B18: hIAPP8-17 (peptide)
peptide: Ac-ATQRLANFLV
modifications: also: C-terminal residue bound to cellulose membrane
notes: as for B1
B19: hIAPP26-35 (peptide)
peptide: Ac-ILSSTNVGSN-{cellulose membrane}
notes: as for B1
B20: hIAPP7-16 (peptide)
peptide: Ac-CATQRLANFL
modifications: also: C-terminal residue bound to cellulose membrane
notes: as for B1
B21: hIAPP24-33 (peptide)
peptide: Ac-GAILSSTNVG-{cellulose membrane}
notes: as for B1
B22: hIAPP12-21 (peptide)
peptide: Ac-LANFLVHSSN
modifications: also: C-terminal residue bound to cellulose membrane
notes: as for B1
B23: hIAPP23-32 (peptide)
peptide: Ac-FGAILSSTNV-{cellulose membrane}
notes: as for B1
B24: hIAPP4-13 (peptide)
peptide: Ac-TATCATQRLA-{cellulose membrane}
notes: as for B1
B25: hIAPP21-30 (peptide)
peptide: Ac-NNFGAILSST
modifications: also: C-terminal residue bound to cellulose membrane
notes: as for B1
B26: hIAPP2-11 (peptide)
peptide: Ac-CNTATCATQR
modifications: cysteine pairing not given here; also: C-terminal residue bound to cellulose membrane
notes: as for B1
B27: hIAPP9-18 (peptide)
peptide: Ac-TQRLANFLVH
modifications: also: C-terminal residue bound to cellulose membrane
notes: as for B1

Target: MBP (UniProt P0AEX9 27-392 = MBP)
Assay: hIAPP peptide array incubated with MBP alone, immunoblot
Protocol: The cellulose membrane was then washed repeatedly with 0.05% Tween 20 in TBS. […] HRP-conjugated goat anti mouse antibodies (Jackson Laboratories, USA) were used as a secondary antibody. Immunoblots were developed using the Renaissance western blot Chemiluminescence Reagent (NEN, USA) according to Manufacturer's instructions and signal was quantified using densitometry. Regeneration of the cellulose membrane for reuse was carried out by sequential washing with Regeneration buffer I including 62.5 mM Tris, 2% SDS, 100 Mm 2-mercaptoethanol, pH 6.7, and Regeneration buffer II including 8 M urea, 1% SDS, 0.1% 2-mercaptoethanol. Efficiency of the washing steps was monitored by contacting the membrane with the chemiluminescence reagent, as described.

Binder	binding result
B1	no binding
B2	no binding
B3	no binding
B4	no binding
B5	no binding
B6	no binding
B7	no binding
B8	no binding
B9	no binding
B10	no binding
B11	no binding
B12	no binding
B13	no binding
B14	no binding
B15	no binding
B16	no binding
B17	no binding
B18	no binding
B19	no binding
B20	no binding
B21	no binding
B22	no binding
B23	no binding
B24	no binding
B25	no binding
B26	no binding
B27	no binding
